Data reported in patent US20250236653A1 (ONKO INNATE, published 2025).
Positions count from the first letter of the chain named. Where “and” joins values, the source holds several entries; their conditions need not be identical. Identical values can stand only once. Blank lines part the entries; values can stand above or below the binder they belong to.

Key:
human OX40 [1] = target: T1, human OX40 (human, UniProt P43489 29-277); assay: flow cytometry on hOX40-Jurkat-NF-κB cells, as in Example 16
T1 construct: whole, on cells; also called hOX40
T1 sequence (looked up): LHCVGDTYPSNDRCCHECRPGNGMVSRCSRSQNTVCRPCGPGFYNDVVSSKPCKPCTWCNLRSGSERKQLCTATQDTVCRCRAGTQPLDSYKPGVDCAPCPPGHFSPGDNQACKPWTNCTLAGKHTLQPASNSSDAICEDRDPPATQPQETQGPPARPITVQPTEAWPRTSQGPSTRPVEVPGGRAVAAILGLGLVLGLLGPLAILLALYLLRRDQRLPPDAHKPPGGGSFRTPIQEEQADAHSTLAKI
Protocol: (§1) Stained hOX40-Jurkat-NF-κB and cOX40-Jurkat-NF-κB cells were analyzed by flow cytometry using a CytoFLEX (Beckman Coulter), the results of which are depicted in FIGS. 78 and 79, respectively, and summarized in FIG. 80.
(§2) Sequences for the VH and VL domains of an additional anti-human OX40 antibody (clone 41) are provided in FIG. 112 (SEQ ID NOs: 170 and 171, respectively). To investigate whether clone 41 would be suitable for use within IL-12 ABD fusion proteins, this antibody was recombinantly expressed in bivalent human IgG1 format (termed ‘hG1-clone 41’) and subjected to protein A purification. […] Next, hG1-clone 41 was assessed for its capacity to block the binding of OX40L to hOX40-Jurkat-NF-κB cells, as described in Example 19. […] The capacity of hG1-clone 41 to block OX40L-induced signaling in hOX40-Jurkat-NF-κB cells was also assessed using a similar experimental setup as described in Example 20, the results of which are depicted in FIG. 117. […] Finally, the capacity of hG1-clone 41 to trigger OX40 signaling was assessed in hOX40-Jurkat-NF-κB cells, as described in Example 25.

cynomolgus monkey OX40 [2] = target: T2, cynomolgus monkey OX40 (cynomolgus monkey); assay: flow cytometry on cOX40-Jurkat-NF-κB cells, as in Example 16
T2 construct: whole, on cells; also called cOX40; cynomolgus OX40
Protocol: as §1, §2

cynomolgus monkey OX40 [3] = target: T2, cynomolgus monkey OX40; assay: flow cytometry on cOX40-Jurkat-NF-κB cells
human OX40 [4] = target: T1, human OX40; assay: flow cytometry, monovalent fusion protein on hOX40-Jurkat-NF-κB cells
human OX40 [5] = target: T1, human OX40; assay: competition, flow cytometry: inhibition of 2.5 nM A647-labelled OX40L-Fc binding to hOX40-Jurkat-NF-κB cells
Protocol: To investigate whether any of BGB-A445, 20E5, or 12H3 competed with OX40L for the OX40 binding site, we assessed the capacity of these clones, either in traditional IgG1 monospecific, bivalent mAb format or as bispecific, monovalent IL-12 ABD fusion proteins, to block binding of OX40L to hOX40-Jurkat-NF-κB cells. For the experiment, 30,000 hOX40-Jurkat-NF-κB cells were pre-incubated with 0-450 nM mAb or IL-12 ABD fusion protein for 10 minutes on ice prior to being stained for an additional 10 minutes on ice with 2.5 nM OX40L-Fc (Sino Biological, catalogue number 13127-H01H) that had been coupled to an A647 fluorophore using a Zenon Human IgG labelling kit (Invitrogen, catalogue number Z25408). Stained hOX40-Jurkat-NF-κB cells were analyzed by flow cytometry, and are depicted as percentage of OX40L-Fc positive cells within the OX40 positive gate (defined using a non-competing anti-OX40 mAb (clone Ber-ACT35, BioLegend catalogue number 350012) in FIG. 89.

human OX40 [6] = target: T1, human OX40; assay: flow cytometry on hOX40-Jurkat-NF-κB cells
Protocol: as §1
Binding of each of the sequence optimized IL-12 ABD fusion proteins to hOX40-Jurkat-NF-κB cells was performed as described in Example 16, the results of which are depicted in FIG. 87 and summarized in FIG. 88.

human OX40 [7] = target: T1, human OX40; assay: cell-based or functional assay

- EC50 (human OX40 [1]): 1.1 nM
- EC50 (cynomolgus monkey OX40 [2]): 1 nM
B1: hG1-clone 41 (antibody, V domains shown)
VH: QVQLVESGGGVVQPGRSLRLSCAASGFTFSSYGMHWVRQAPGKGLEWVALISYDGSNKIYTDSVKGRFTISRDNSKNTLYLQMNSLRPEDTAVYYCAKGREIVATYFDYWGQGTLVTVSS
VL: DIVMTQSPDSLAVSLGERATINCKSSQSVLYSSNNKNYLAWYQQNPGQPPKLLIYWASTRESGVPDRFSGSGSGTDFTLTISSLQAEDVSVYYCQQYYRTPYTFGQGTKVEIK
notes: Recombinantly expressed in bivalent human IgG1 format

- fold difference of EC50 against hOX40-Jurkat-NF-κB cells (cynomolgus monkey OX40 [3]): ≤ 2 fold
- binding result (human OX40 [4]): binds
B2: mono-mut23-20E5 (Fc fusion)
chain: IWELKKDVYVVELDWYPDAPGEMVVLTCDTPEEDGITWTLDQSSEVLGSGKTLTIQVKEFGDAGQYTCHKGGEVLSHSLLLLHKKEDGIWSTDILKDQKEPKNKTFLRCEAKNYSGRFTCWWLTTISTDLTFSVKSSRGSSDPQGVTCGAATLSAERVRGDNKEYEYSVECQEDSACPAAEESLPIEVMVDAVHKLKYENYTSSFFIRDIIKPDPPKNLQLKPLKNSRQVEVSWEYPDTWSTPHSYFSLTFSVQVQGKSKREKKDRVFTDKTSATVICRKNASISVRAQDRYYSSSWSEWASVPCSGGGGSGGGGSGGGGSGGGGSGGGGSRNLPVATPDPGMFPCLHHSQNLLRAVSNMLQKARQTLEFSPCTSEEIDHEDITKDKTSTVEACLPLELTKNESCLNSRETSFITNGSCLASRKTSFMMALCLSSIYEDLKMYQVEFKTMNAKLLMDPKRQIFLDQNMLAVIDELMQALNFNSETVPQKSSLEEPDFYKTAIKLCILLHAFRIRAVTIDRVMSYLNASGGGGSGGGGSEPKSSDKTHTCPPCPAPEFEGGPSVFLFPPKPKDTLMISRTPEVTCVVVDVSHEDPEVKFNWYVDGVEVHNAKTKPREEQYNSTYRVVSVLTVLHQDWLNGKEYKCKVSNKALPASIEKTISKAKGQPREPQVCTLPPSRDELTKNQVSLSCAVKGFYPSDIAVEWESNGQPENNYKTTPPVLDSDGSFFLVSKLTVDKSRWQQGNVFSCSVMHEALHNHYTQKSLSLSPG
heavy: QVQLVQSGAEVKKPGASVKVSCKASGYTFTSYVMHWVRQAPGQRLEWIGYINPYNDGTKYNEKFKGRATLTSDKSASTAYMELSSLRSEDTAVYYCANYYGSSLSMDYWGQGTLVTVSSASTKGPSVFPLAPSSKSTSGGTAALGCLVKDYFPEPVTVSWNSGALTSGVHTFPAVLQSSGLYSLSSVVTVPSSSLGTQTYICNVNHKPSNTKVDKKVEPKSCDKTHTCPPCPAPEFEGGPSVFLFPPKPKDTLMISRTPEVTCVVVDVSHEDPEVKFNWYVDGVEVHNAKTKPREEQYNSTYRVVSVLTVLHQDWLNGKEYKCKVSNKALPASIEKTISKAKGQPREPQVYTLPPCRDELTKNQVSLWCLVKGFYPSDIAVEWESNGQPENNYKTTPPVLDSDGSFFLYSKLTVDKSRWQQGNVFSCSVMHEALHNHYTQKSLSLSPG
light: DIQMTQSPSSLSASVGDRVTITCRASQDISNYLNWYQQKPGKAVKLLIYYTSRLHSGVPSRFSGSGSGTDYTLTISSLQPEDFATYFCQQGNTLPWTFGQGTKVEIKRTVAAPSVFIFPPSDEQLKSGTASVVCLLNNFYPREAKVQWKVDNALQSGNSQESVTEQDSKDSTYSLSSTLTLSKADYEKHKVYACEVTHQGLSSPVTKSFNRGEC
notes: Monovalent for OX40

- IC50 (human OX40 [5]): 227 nM
- fold difference of EC50 against hOX40-Jurkat-NF-κB cells (cynomolgus monkey OX40 [3]): ≤ 2 fold
- EC50 (human OX40 [6]): 13.6 nM
B3: mono-mut23-12H3 (Fc fusion)
chain: B2 chain
heavy: QVQLVQSGAEVKKPGSSVKVSCKASGYTFKDYTMHWVRQAPGQGLEWIGGIYPNNGGSTYNQNFKDRVTLTADKSTSTAYMELSSLRSEDTAVYYCARMGYHGPHLDFDVWGQGTTVTVSSASTKGPSVFPLAPSSKSTSGGTAALGCLVKDYFPEPVTVSWNSGALTSGVHTFPAVLQSSGLYSLSSVVTVPSSSLGTQTYICNVNHKPSNTKVDKKVEPKSCDKTHTCPPCPAPEFEGGPSVFLFPPKPKDTLMISRTPEVTCVVVDVSHEDPEVKFNWYVDGVEVHNAKTKPREEQYNSTYRVVSVLTVLHQDWLNGKEYKCKVSNKALPASIEKTISKAKGQPREPQVYTLPPCRDELTKNQVSLWCLVKGFYPSDIAVEWESNGQPENNYKTTPPVLDSDGSFFLYSKLTVDKSRWQQGNVFSCSVMHEALHNHYTQKSLSLSPG
light: DIQMTQSPSSLSASVGDRVTITCKASQDVGAAVAWYQQKPGKAPKLLIYWASTRHTGVPSRFSGSGSGTDFTLTISSLQPEDFATYYCQQYINYPLTFGGGTKVEIKRTVAAPSVFIFPPSDEQLKSGTASVVCLLNNFYPREAKVQWKVDNALQSGNSQESVTEQDSKDSTYSLSSTLTLSKADYEKHKVYACEVTHQGLSSPVTKSFNRGEC
notes: Monovalent for OX40

- IFNγ release by conventional CD4+ T cells (AlphaLISA), EC50, two PBMC donors (human OX40 [7]): 27.7 pM and 19.5 pM
- IFNγ release by induced Treg cells (AlphaLISA), EC50, two PBMC donors (human OX40 [7]): 5.7 pM and 13.8 pM
B4: mono-mut23-20E5_V4 (Fc fusion)
chain: B2 chain
heavy: B2 heavy with D56E
light: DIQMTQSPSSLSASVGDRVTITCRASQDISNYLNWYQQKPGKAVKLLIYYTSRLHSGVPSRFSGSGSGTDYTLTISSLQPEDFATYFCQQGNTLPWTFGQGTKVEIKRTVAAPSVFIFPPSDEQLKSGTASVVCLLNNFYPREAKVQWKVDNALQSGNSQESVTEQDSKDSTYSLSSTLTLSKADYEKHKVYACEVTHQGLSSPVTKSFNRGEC
